The source of these data is the NTF2 design screens of Basanta et al. (2020).

The nature of the series: protease stability score; higher = more stable; yeast display proteolysis, trypsin and chymotrypsin.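 Further: relative to predicted unfolded state with 0 unfolded-like and 1 meaning tenfold more protease.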
Take “SDEEDTLESVYKLLEHIERTGDWRIWKELADPNVRVELHVNGVEITDHGREAVERLMLKFGVDHIHFKDFDHRTYNGVVHIQEDIVLNINGREIRTKREISADKVNGKWVFRSVRMKID”: the protease stability score amounted to 1.69.
Sequence “DDLEEEAKDAVTKFIHLLLTGDWKEIREMVDPNVRIDVGDKEKHGWEDFIRDALYMHHQVDHIEVRIRHIDIFENRVVTHSVIYIEVNGQDIRLDLTLYIKKINGRWEIRQIEFK” registered a protease stability score of 1.82.
Sequence “DDHHEELRKFVEELSRARETGDEELIESLIDPHVKINVGDKRLHGRRAVEILLHEWRVHFFHSERMEVYGDKARIEGHMNGEYNGRRHETKLEMYVHKVNGKWILQHFTVE” gave a protease stability score of 2.17.
“SEEEELNQKLLEEIIQILITGDWRALLELADPNVRSEVNGVELHGMETHARHLLEMLEKYPNIQVRIHHLEVQGEKIIIHGTIHFNGRDLRLTLVWHVVNGRWKEVRSELR” had a protease stability score of 1.35.
“DEDVKTLEHLLRLINDINRTGDEERWMHEADPNTLVIYDGVESHGRESVMKLYHKHWEQLRIEEIHIHHIKMQGNKATIHGRLRGEIDGREKSFTIHVHIILINGQIQSITFRIE”: the protease stability score is 1.02.
“DDEEKEDKDAIKLLVKFWETGDWENISRMMDPHVRLEVGEFTYHGREHFSRLYLEQYERVDHIQFRIHHLEVVGDKMTADTEVHIDINGRHIRLRTHINMIKINGRWRLHSVLIN”: the protease stability score amounted to 1.48.
“SEDDEKSQEIMHRFIKYYETGDWKRLYELADPNARSYYNGKERHGMDVIRDLIEKVKNVKLHIRRIESDVQGDKINLHLDVEVDIDGQIMTLHDTVHAEKIDGRWRIRIIFLHVK” returned a protease stability score of 1.36.
“SEEEEKAKKWLEEVLRAEETGDEEKLLELADPNVRWIFNGVDVIGRKHFERNIRESLEKIPNMRIEHFHLHRMETIDGRIDMETEEDGIINGRDIRTRRRIIVVKVDGRWIIKSVHLI” had a protease stability score of 0.637.
In turn, “SEEKEDAKIALTLLHEVIETGDERLFREMADPRVQIIVNGKELHGWKHFKEMLRILSERYDHMEIKFRDVRVVDGQVDSDVTINLHYDGREDQMEMDIIISKFDGRWFNHQVIFR” gave a protease stability score of 1.34.
The sequence “SEESEHEEIIAEVTLELLATGDWRTLYELFDPNVRVHVGDKRSIGREQFVKIWKEFLEKFKNVVYKFKDIKWINGVVHIHMTLEYNGRRIEVNIHNFVYDGKIEHIHIEFKHL” came in with a protease stability score of 1.66.
As to “DEERHILEELMRILTEAMHTGDEHLLEWLLDPHMIIEIGDKTLHGRDQILRVVEEIRRHIRRIEVKHSHVQGDKIRIEGHMHSETEFNGRRFSFTVYVEIIIVKINGVWRIRSLHIH”, the protease stability score worked out at 1.39.
To “DEEDELAEHLLHIIIDALETGDWKFFADYFDPHTRLEIEIGDKRFQLHGRESIRKRWEEIWRELGVKHREIKSTRLIGDKIEMDVTINVGDKRIRHHIVIVIVNGRMKKEMVIVR” belongs 1.19; to “SEEETHVKEAVKRSVDFLETGDERLFRELFDPNVRLIVNVGNKRVELHGWEEVVRWLREARLHRVILRTIRIQGDKAEVEGDVDGEINGRHDLHIIEWHFIVINGRFHSVSVRIE”, 1.05; to “DHHEHDTKILMDLWLHALTTGDWRLLAELADPHVRFEVEFDGRRIEYHGRHSFEEHMKRLVDKIKNLTLTIHDVRVIGDFVHIEGETTWDGRTSSIHIHLKVINGRVKHIKVEER”, 1.92.
The result for “DEDEKIYRWALSVFLRNFLTGDEDSLRRMMDPDVRLEVGDKEDHGMEKVVRWLTEMMRKFKGATVHLRDHKTQGNKVHLDLELNVGDKHSKLIIIIKKVDGQWIVDEFTVH” reads 1.52; that for “SEEEEEVEEFIHIFTESLKTGDEHSLRRLVDPHVRIEWNGRTHHGWQMFTRLVREARVEIVVRDIRVINGRAIINGELRYEQGDKTFTTEIEIIVVKFDGKWHMHHVRYK”, 2.21; that for “SEDHHLMEHAIEIMLEMIRTGDEQKYLNLVDPHARLEIDGREHHGWKRMREVFRWLGVDHSDVRHVNVQGEKVEVDTIIEVGDKRIEVIVIVRKINGRWVIEEVRVH”, 0.549.
The result for “SESKEFIKRFTEEILKNTLTGNEDRYEELLDPNVRVEVGDKEHHGREEALEFLHRIWRELRTKHIVLRDMRIIGDKAEVEYEVRVEVNGVELHMTRRMEIVVIDGRLKAVKLEHT” reads 1.24.
As for “SEDEEHLKELSEMLIKNWLTGDEKKWDRLADPHAKLRINVNGRDRRRVGMENVHRALHHLFHELRIKHLRDKDSNLINGVSHIEGESTILVGDKEIDTRIVIHLLIIDGRLEEERIVIE”, the protease stability score is 0.178.
The result for “DEEDQDWERILEELLRSLLTGDEEFIRRLIDPNVRMHIKQGDKRINLHGRDAIEKLLELLHRRIKGVRIEIKRHDIQGDKIYVDGVINIDGKEFKIIIHIIVINGRLHTVSFETE” reads 1.9; that for “RELEESSKFFLKLIIEAFLTGDERTNSELADPNVRIHIGEFHYHGREEFSKLMEELVKRVKNATVINDIDHIEVQGEKIKMDGRLILIYNGRIFETRTSLIVVKIDGRWLIESVHVK”, 1.48; that for “TEEHRATHDYVELLIRAARTGDEDIWKTMFDPDDKLVINGRTHHGREEAVRLLREIRIQIDHVDLREVRVYDGVVEIHTHTELRIIQGDKHLEIRTDQEVHILKIDGRWSNSIVIIH”, 1.06.
In turn, “DHEEEKAVEIARLLLEAELTGDWKTFSHLADPHTRWIERIDGREDSRHGMEEVVRIIIERLKEIRMEVRIRRKRVVGDKVELDGELIMRINGVEIRVEVRIIIIIVGDKVKFIEITIH” gave a protease stability score of 0.83.
In turn, “SEDEKVVFQILRLWVDLLLTGDEEEMLHLADPNTRVEIGEFDDHGREAMEFMIRRFDVIEDIKIRDIRTIDGKVQIHGEVHSHFNGRRFTIHVEIIARKIDGRWKLTSMHFI” returned a protease stability score of 2.08.
The result for “NKMMEEIHHWLRLLIENEITGDEEKSLHLADPEARIDFDGVEIHGWERFLKFVEEKLKLLGARVEDIKIHDYRIIDGRLHIDSRVHIEINGVRQTREREIVSRKVNGRWLVNSLHFR” reads 0.607; that for “GEDEHLAKRLLDLLIELFHTGDWDFISMLADPHVKLNVNGVQYHGRHDVTKLVHDEAEELRVHIQIHKVDWVGDKVHVDTRLVVNIDGQEHRTKTHIDMIVVNGRLNSMRIEIR”, 1.19.
As for “SEKERLVLEIYWKIIHSRNTGDEDHWEELADPDMKLTINGVEFHGREATSKFFKEHVKRFGWEFHIHVDRINAFDGRVESHVIIHIQVGDKHIEIEMREEYVVINGVLKEIRILDR”, the protease stability score was found to be 2.1.
As for “DKREEEVHELIRELVESIITGDFRHFFKLLDPHARSEVGDKELHGREQISDWLLKHIRRVKNITFKEVHFHELRVIGDKVEFHFDIRGVINGQDTTLEVEMKARKIDGRWHVEEIRFI”, the protease stability score was found to be 1.28.
The sequence “DENSHALEIAFRLFLEYYYTGDPDEMVELADPRTRLFVGEYDSHGREQFETLLREEFKRLGIDVQHITEWEIHVQGDKVILHVRVHEVFNGKETETEIHITMHKIDGRWLISSQKRRIV” gave a protease stability score of 0.626.
“TEDREIAKKFAEHMIHNYETGDFERILELLDPHTKIHVNGKDMHGREHWLHHLKKWGVDRIESEIRHVEIQGDKVKVDTELHYGDKTIERTVIFEKFDGRWVLREVRVD” returned a protease stability score of 1.12.
To “DEMRRDVDETLKELLEAWETGDEEKVSHLMDPNVRIHIGDKTLVGRELVREEVRHLRYHDYDVHHIRVIGEKADIDGVLDGNVNGRRENRKIHLHLLKVDGRWFFEETRFE” belongs -0.004; to “DEIYEDIKHIVDLLSHAHETGDEHELKHLADPNVKWIINGVELVGWEDFRKLLEHLRHKRVHMDPRDVKRQGDYIHVTAELRFTGVFNGREREETFEVHLHMKKVNGRWLLTSVRVK”, 1.48.
As for “SEDFHRIFHMLELIIRAWITGDEELLEKLADPHVRIDIDGVDIVGMELVSTFLHEIRFDLKQIRFKDIHVVNGRIRLHGESDVHVQIGDKEYEIRSEEEWIVTKVNGQWRLTEVRYL”, the protease stability score was determined as 2.08.
As for “NEEEKRMVEEHEKFWNFVRTGDEDTVRDLIDPHARVIQGNKILHGWEEAVRWMKEIRIHDIRIHSSHEVDGRVTITGDMDFEFNGKRHILEVRIFLLKIDGRWIHTFIQID”, the protease stability score was determined as 1.33.
In turn, “SEEEERAEELVRLWEHDLKTGNEHLLRELMDPNTRLVVNGRHTHGREHAVNILLQFVEEWRIESVHLHRWRVIGDKIDLDIHIHGRINGVEHHIKSILVLVKINGKWLIHTIVIH” came in with a protease stability score of 1.02.
To “DERDEHSRHVAELWLQSMETGDWEHDRRLLDPNMKFEAPNHSLHGRDSYVETMRKIKNLVIHDTKIEHYEVQGDKAHVQMRIDVIVGDKRTWVEVRVEIVVVDGVLHSLRIEIE” belongs 0.777; to “DETKEQSDEFIRIWVKARRTGDEHKLRRLIDPNVRVLINGKDLIGMDRALEIIEMFRKEFGIDHMHFTVRHVDIFNGVAISDFKVEINFNGREHEFTTHLVNLKIDGVWHTHSMEFH”, 0.546; to “DEEEEEWERIARRLVKAWLTGDEDLLSFLADPHVRLHVGDKHNHGREHVERHWKEYLDRVKNVRIHVHHVEIQGEKIIIHVEVEINGRTFNMRVIIIVINGRIKEIVIHIH”, 0.635.
To “DEERELAKWAEEMLRRRFETGNERFWEELADPNTRSDINGVELIGRETVVHFLREEQRHMGVDHTDVKHTNVELQGDKVIVRMDVELHFDGVTVRSTLSYTSIKFNGRWILHSIEHHIH” belongs 1.13; to “SEEDELMEEWRRLFIHSFLTGNEDELHRLIDPNARFIINGVNLHGWKALETKLRELGAKHIEVRERHEHRQGNKLELHVHIIIHQGDKDLREDVRIENEKVNGRWVVRTIEEK”, 1.07.
On to “SEEKEIAERFIEMALQVWLTGDERSMVDMVDPHVLNIVGDKEHHGREILLKFLHDFKERFPNVRVKHRDVHIDLQGDKMEVRIDGRIHFDGKQFRLEIIIITTKIDGRWRVTHWEVRIE”, for which the protease stability score was 2.19.
The result for “TEHEEISHRLMELLKEALQTGDEEHIRDLADPHVRVIVNGKNIHGREEVHMWLLILNTKFKGLTLRVHHVDIQGEKIILDTRIHVNGRSTTSHVELYVVDGVLKRAHLHIE” reads 1.45; that for “TELEEEAKKYQDFFVTIVVTGDEDSFINLFDPNVRSVVNGRKLHGMHKWKRYIEELLRKIKNLRFELTIHEVNVIDGKVESHMELILRINGVEQRHDLNVHAEKFDGRWLYREIEIR”, 1.46.
Regarding “DEEDELMKEYFELFWRDLLTGNEELLENLVDPHVRVKVGDKEFHGRHLLSKLASDMGVDHIQIEDMRVQGDKLSIDTTVDVNGKRRRMTLRARKVNGRWFFTELEVR”, the protease stability score was 1.5.
Regarding “SEEERLARVFVELLLEISKTGDERMWKWLADPHYRLIIDGVRFHGRETLEREFKRFDYIHDVRLNDMIINGEHLILDVRVHGQQGDKEINIRTFLVVLKVDGVWVLKSVHIH”, the protease stability score worked out at 1.49.
In the case of “SEDEEMLRRIIEELNRAHKTGNWRRIAELMDPDVRLIIGDKENHGRSVLIEWLKRIDHIEVESVDIHHIDSQGDKIILHGQVHLINVYNGVEVQENRDMTVILIKVDGRWFFHSIRVR”, the protease stability score was determined as 2.56.
For “SEEEELTEMVARVIVHSLLTGDEENLDHMLDPNVKIDNDIDGKEERLHGREDRRRVNEEWGWSNIHWIVRRIRTQGNKATVDGEIRFDGVTEHVRLIVILFNGKVHLVRLKHL”, the protease stability score is 0.77.
